Biological target: T1, human ABCG2 (human, UniProt Q9UNQ0 1-655)
T1 construct: also called CD388; BCRP
T1 sequence: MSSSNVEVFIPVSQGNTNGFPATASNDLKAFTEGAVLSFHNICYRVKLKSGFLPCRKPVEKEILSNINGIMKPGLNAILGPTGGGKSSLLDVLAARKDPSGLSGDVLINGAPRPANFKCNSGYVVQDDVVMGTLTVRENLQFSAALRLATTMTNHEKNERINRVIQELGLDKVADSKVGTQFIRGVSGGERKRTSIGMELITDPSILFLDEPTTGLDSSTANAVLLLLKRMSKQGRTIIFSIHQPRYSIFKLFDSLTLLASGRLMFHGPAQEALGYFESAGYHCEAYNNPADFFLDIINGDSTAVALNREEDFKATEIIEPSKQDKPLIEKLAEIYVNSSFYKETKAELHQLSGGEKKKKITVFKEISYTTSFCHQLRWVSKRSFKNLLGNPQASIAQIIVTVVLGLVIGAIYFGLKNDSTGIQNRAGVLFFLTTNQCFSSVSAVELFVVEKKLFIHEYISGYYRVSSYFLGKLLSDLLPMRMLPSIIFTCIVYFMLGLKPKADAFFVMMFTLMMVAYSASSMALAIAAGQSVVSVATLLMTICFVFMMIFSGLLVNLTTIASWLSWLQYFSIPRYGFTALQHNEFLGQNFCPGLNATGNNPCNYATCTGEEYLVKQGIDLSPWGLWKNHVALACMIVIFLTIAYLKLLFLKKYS
Experiment: flow cytometry on 293T cells stably expressing human ABCG2

binding result: binds
B1: anti-ABCG2 antibody 5D3 (antibody, V domains shown)
VH: QVQLQESGPGLVKPSQSLSLTCTVTGFSITSDYAWNWIRQFPGKKLEWMGYINFDGGTTYNPSLRGRISITRDTSKNQFFLQLRSVTPEDTATYYCATFYGAKGTLDYWGQGTSVTVSS
VL: DIVLTQSPSSFSVSLGDRVTISCKASGYILNRLAWYQQKPGNAPRLLISGATSLETGFPSRFSGTGSGKDYTLSISSLQTEDVGTYYCQQYWSTPWTFGGGTKLEIR

From US20230192902A1 (KENJOCKETY BIOTECHNOLOGY, published 2023)
